Laboratory results reported in the supplement of paper PMC9112550, “Optimization of the antimicrobial peptide Bac7 by deep mutational scanning” (BMC Biology, 2022).

system: Escherichia coli TOP10; assay: shrunken log2 fold change of peptide-encoding DNA abundance (4.5 h post-induction vs induction); higher = less antimicrobial activity (less host growth inhibition); conditions: time post-induction: 4.5 h; library: site-saturation at positions 5, 18, 19, 20
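Note: peptides expressed intracellularly from a pBAD plasmid library in pooled LB shake-flask culture, induced with 0.3% L-arabinose, DNA abundance read by NGS, three biological replicates, DESeq2 with apeglm shrinkage.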

| Sequence | shrunken log2 fold change |
| --- | --- |
| RRIRVRPPRLPRPRPRPSTFPRP | -0.479 |
| RRIRMRPPRLPRPRPRPKCHPRP | 0.335 |
| RRIRWRPPRLPRPRPRPDVWPRP | 0.373 |
| RRIRHRPPRLPRPRPRPEPHPRP | 0.113 |
| RRIRCRPPRLPRPRPRPSGCPRP | -0.221 |
| RRIRQRPPRLPRPRPRPCPRPRP | -0.01 |
| RRIRNRPPRLPRPRPRPDTCPRP | -0.279 |
| RRIRIRPPRLPRPRPRPRFYPRP | -0.124 |
| RRIRERPPRLPRPRPRPWACPRP | 0.0618 |
| RRIRGRPPRLPRPRPRPFSMPRP | 0.169 |
| RRIRQRPPRLPRPRPRPTDSPRP | -0.0401 |
| RRIRDRPPRLPRPRPRPWKPPRP | -0.35 |
| RRIRERPPRLPRPRPRPPWVPRP | -0.0642 |
| RRIRFRPPRLPRPRPRPGFIPRP | -0.257 |
| RRIRQRPPRLPRPRPRPAQKPRP | -0.0027 |
| RRIRIRPPRLPRPRPRPHKCPRP | -0.639 |
| RRIRVRPPRLPRPRPRPEPPPRP | 0.664 |
| RRIRCRPPRLPRPRPRPVTAPRP | 0.108 |
| RRIRDRPPRLPRPRPRPVDNPRP | 0.0262 |
| RRIRKRPPRLPRPRPRPSYSPRP | -0.413 |

| Sequence | shrunken log2 fold change |
| --- | --- |
| RRIRYRPPRLPRPRPRPYHRPRP | -0.236 |
| RRIRFRPPRLPRPRPRPVNNPRP | -0.316 |
| RRIRYRPPRLPRPRPRPEPTPRP | 0.0581 |
| RRIRLRPPRLPRPRPRPCFSPRP | -0.112 |
| RRIRERPPRLPRPRPRPSMAPRP | -0.192 |
| RRIRPRPPRLPRPRPRPWAFPRP | 0.144 |
| RRIRIRPPRLPRPRPRPWMLPRP | -0.13 |
| RRIRMRPPRLPRPRPRPVDQPRP | 0.0463 |
| RRIRDRPPRLPRPRPRPQDYPRP | -0.112 |
| RRIRPRPPRLPRPRPRPHDRPRP | -0.0974 |
| RRIRIRPPRLPRPRPRPLLPPRP | -0.0454 |
| RRIRHRPPRLPRPRPRPTVSPRP | -0.0706 |
| RRIRSRPPRLPRPRPRPHYYPRP | -0.581 |
| RRIRDRPPRLPRPRPRPAFWPRP | -0.0581 |
| RRIRARPPRLPRPRPRPHATPRP | 1.01 |
| RRIRARPPRLPRPRPRPMKDPRP | 0.0565 |
| RRIRYRPPRLPRPRPRPSMKPRP | -0.806 |
| RRIRYRPPRLPRPRPRPRMMPRP | 0.0163 |
| RRIRFRPPRLPRPRPRPSYSPRP | -0.903 |
| RRIRHRPPRLPRPRPRPPWRPRP | 0.538 |

| Sequence | shrunken log2 fold change |
| --- | --- |
| RRIRGRPPRLPRPRPRPPGIPRP | 0.745 |
| RRIRDRPPRLPRPRPRPTLRPRP | 0.129 |
| RRIRVRPPRLPRPRPRPPYRPRP | -0.0303 |
| RRIRDRPPRLPRPRPRPIQTPRP | 0.00408 |
| RRIRMRPPRLPRPRPRPKLSPRP | 0.982 |
| RRIRVRPPRLPRPRPRPQTAPRP | 0.0297 |
| RRIRFRPPRLPRPRPRPKMEPRP | -0.028 |
| RRIRERPPRLPRPRPRPQRTPRP | -0.233 |
| RRIRWRPPRLPRPRPRPQEGPRP | -0.00127 |
| RRIRVRPPRLPRPRPRPEQIPRP | -0.0137 |
| RRIRTRPPRLPRPRPRPGRRPRP | 0.244 |
| RRIRFRPPRLPRPRPRPALWPRP | 0.625 |
| RRIRVRPPRLPRPRPRPRFMPRP | -0.459 |
| RRIRARPPRLPRPRPRPYIIPRP | -0.445 |
| RRIRCRPPRLPRPRPRPWDYPRP | 0.00188 |
| RRIRCRPPRLPRPRPRPWWGPRP | 0.0769 |
| RRIRHRPPRLPRPRPRPYCCPRP | -0.305 |
| RRIRTRPPRLPRPRPRPDQKPRP | -0.056 |
| RRIRARPPRLPRPRPRPAHQPRP | 0.568 |
| RRIRHRPPRLPRPRPRPISWPRP | -0.245 |
